The values that follow come from patent publication US20250161356A1.

Assay [1] concerns the target BTN2A1-BTN3A1-zipper ectodomain complex (wild type) (human) (UniProt Q7KYR7). The assay is described as follows: flow cytometry, complex tetramer MFI on transfected BTN2A.BTN3A KO HEK293T cells; mean ± SEM; control. A general note: A flow cytometer gives signals particle by particle.
Assay [2] deals with BTN2A1-BTN3A1 complex peptide on (human). The assay is described as follows: PE-labelled BTN2A1-BTN3A1 complex tetramer on BTN2A.BTN3A-knockout HEK293T cells transfected with the TCR and CD3; reduced against WT G115; full-length, on cells.
For assay [3], the target named is full-length human BTN3A1 on transfected cells (human) (UniProt O00481). The assay is described as follows: flow cytometry, γδTCR tetramer-PE on BTN3A1+ NIH-3T3 cells, isotype (IgG1κ)-treated (black number), GFP+ gate; SAv ctl 28.
In assay [4] the target is BTN2A1 on transfected cells (human) (UniProt Q7KYR7). The assay is described as follows: flow cytometry, control tetramer-PE on BTN2A1+ NIH-3T3 cells, mAb 20.1-treated (grey number), GFP+ gate; SAv ctl 22.
The target of assay [5] is G115 Vγ9Vδ2+ TCR Glu52δ-Ala on transfected HEK293T cells (human). The assay is described as follows: flow cytometry, tetramer-PE versus CD3-APC on HEK293T cells co-transfected with CD3 and G115 Glu52δ-Ala TCR; SAv ctl 32.
Assay [6] has as its target G115 Vγ9Vδ2+ TCR wild-type, full-length, on transfected HEK293T cells (human). The assay is described as follows: flow cytometry, tetramer-PE versus CD3-APC on HEK293T cells co-transfected with CD3 and G115 WT TCR; SAv ctl 27.
Assay [7] has as its target full-length human BTN3A1 on transfected cells (human) (UniProt O00481). The assay is described as follows: flow cytometry, control tetramer-PE on BTN3A1+ NIH-3T3 cells, isotype (IgG1κ)-treated (black number), GFP+ gate; SAv ctl 25.
Assay [8] deals with G115 Vγ9Vδ2+ TCR His85γ-Ala on transfected HEK293T cells (human). The assay is described as follows: flow cytometry, tetramer-PE versus CD3-APC on HEK293T cells co-transfected with CD3 and G115 His85γ-Ala TCR; SAv ctl 27.
Assay [9] addresses G115 Vγ9Vδ2+ TCR Lys53δ-Ala on transfected HEK293T cells (human). The assay is described as follows: flow cytometry, tetramer-PE versus CD3-APC on HEK293T cells co-transfected with CD3 and G115 Lys53δ-Ala TCR; SAv ctl 27.

G115 Vγ9Vδ2+ TCR His85γ-Ala on transfected HEK293T cells (human), sequence (TCR delta, as listed by the source, chain 1 of 2): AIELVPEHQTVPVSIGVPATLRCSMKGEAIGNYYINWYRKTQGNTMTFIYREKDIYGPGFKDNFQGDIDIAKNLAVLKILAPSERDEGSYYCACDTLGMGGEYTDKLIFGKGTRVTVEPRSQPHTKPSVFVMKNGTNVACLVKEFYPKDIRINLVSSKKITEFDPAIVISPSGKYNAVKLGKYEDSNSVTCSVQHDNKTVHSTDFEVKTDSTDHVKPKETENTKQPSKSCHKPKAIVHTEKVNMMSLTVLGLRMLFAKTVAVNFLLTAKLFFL
G115 Vγ9Vδ2+ TCR His85γ-Ala on transfected HEK293T cells (human), sequence (TCR gamma, as listed by the source, chain 2 of 2): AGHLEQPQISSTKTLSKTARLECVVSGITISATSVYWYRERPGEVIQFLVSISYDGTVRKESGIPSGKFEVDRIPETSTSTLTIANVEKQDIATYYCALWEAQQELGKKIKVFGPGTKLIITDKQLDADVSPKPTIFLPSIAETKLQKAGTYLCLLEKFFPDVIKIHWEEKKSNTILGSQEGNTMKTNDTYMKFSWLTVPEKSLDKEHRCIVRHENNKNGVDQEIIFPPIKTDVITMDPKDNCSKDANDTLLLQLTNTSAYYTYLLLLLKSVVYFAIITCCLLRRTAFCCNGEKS
BTN2A1 on transfected cells (human), sequence (Q7KYR7 29-527 limits assumed): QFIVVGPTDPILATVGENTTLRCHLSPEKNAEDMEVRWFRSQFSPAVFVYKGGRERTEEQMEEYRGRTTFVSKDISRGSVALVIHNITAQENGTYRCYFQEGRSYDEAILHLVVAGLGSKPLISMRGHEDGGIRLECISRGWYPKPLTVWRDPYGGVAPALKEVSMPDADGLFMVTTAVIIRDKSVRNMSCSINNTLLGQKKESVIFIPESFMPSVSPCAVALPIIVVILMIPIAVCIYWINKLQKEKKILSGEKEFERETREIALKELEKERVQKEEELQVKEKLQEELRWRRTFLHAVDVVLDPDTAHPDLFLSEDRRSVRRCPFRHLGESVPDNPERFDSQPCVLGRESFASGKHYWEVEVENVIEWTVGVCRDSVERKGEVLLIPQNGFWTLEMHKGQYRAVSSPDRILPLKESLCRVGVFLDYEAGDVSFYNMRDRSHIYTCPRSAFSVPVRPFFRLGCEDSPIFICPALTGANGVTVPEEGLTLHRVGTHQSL

On to “CD3 complex on HEK293T cells transfected with CD3 only (receptor)”, for which the fold-change of BTN2A1-BTN3A1 complex tetramer MFI relative to WT G115 TCR in [1] was found to be 0.3 fold.
On to G115 Vγ9Vδ2+ TCR K53D, for which, in [2], the fold change of tetramer MFI against WT G115 TCR was found to be 0.8 fold.
For G115 Vγ9Vδ2+ TCR K53E, the fold change of tetramer MFI against WT G115 TCR in assay [2] worked out at 0.7 fold.
In assay [3], “chimeric γδTCR tetramer: G115 Vγ9+ γ-chain with 9C2 Vδ1+ δ-chain” had an MFI of PE of 24.
Take mCD1d tet. ctl: the values for the MFI of PE in assay [4] and in assay [7] were 20 and 32, respectively. Moreover, the median fluorescence of PE worked out at 28 in assay [5], 20 in assay [6], 22 in assay [8] and 23 in [9].
